For five molecules, binding result and Kd results are on record in publication PMC8561633 (The EMBO Journal, 2021).

Where a chain is given by its changes, count along the chain named. Ends that are not written are not given here.

The chains are these.
T1: wild‐type SERF2 (human, UniProt P84101-1 1-59)
T1 sequence: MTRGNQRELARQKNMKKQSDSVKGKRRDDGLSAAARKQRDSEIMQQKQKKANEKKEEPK

B1: Asyn Med peptide (GKNEEGAPQEGI) of alpha‐synuclein, carboxyfluorescein-labeled (peptide)
peptide: GKNEEGAPQEGI
modifications: also: 5(6)-carboxyfluorescein label, site not given here
B2: Asyn top peptide (YEMPSEEGYQDY) of alpha‐synuclein, carboxyfluorescein-labeled (peptide)
peptide: YEMPSEEGYQDY
modifications: also: 5(6)-carboxyfluorescein label, site not given here
B3: Asyn worst peptide (MDVFMKGLSKAK) of alpha‐synuclein, carboxyfluorescein-labeled (peptide)
peptide: MDVFMKGLSKAK
modifications: also: 5(6)-carboxyfluorescein label, site not given here
B4: SERF2 KR mutant (natural protein)
chain: T1 sequence with K16R, K17R, K23R
B5: wild‐type SERF2 (natural protein)
chain: T1 sequence

What all share (assay): MST
In one experiment the target is T1, wild‐type SERF2.
The target in experiment [1] is B2.
Experiment [2] has as its target B1.
For experiment [3], the target named is B3.
In experiment [4] the target is amyloid beta peptide (strongest wild‐type SERF2 binding peptide from amyloid beta), carboxyfluorescein-labeled (human).

As to B1, in the experiment with wild‐type SERF2, the binding result is recorded as “binds”.

In the case of B2, the Kd (usually the free concentration of one partner at which half of the binding sites on the other are occupied at equilibrium, for simple one-to-one binding) with wild‐type SERF2 was 3 µM. With B3, the binding result in the experiment with wild‐type SERF2 is given as “binds”. B4: the dissociation constant Kd in experiment [1] came to 2.6 µM; in experiment [4], 6.6 µM. Also, the binding result in experiment [2] and in experiment [3] was “binds” in each case. B5 displayed a Kd in experiment [4] of 9.6 µM.
